From patent publication US20120275997A1 (published 2012) come the findings set out here.

Changes are numbered by the printed parent chain.

Assay [1] has as its target T1, recombinant large extracellular loop EC2 of human CD151 (human, UniProt P48509 113-221, limits assumed).
T1 construct: also called recombinant EC2 loop; extracellular loop 2
T1 sequence (looked up): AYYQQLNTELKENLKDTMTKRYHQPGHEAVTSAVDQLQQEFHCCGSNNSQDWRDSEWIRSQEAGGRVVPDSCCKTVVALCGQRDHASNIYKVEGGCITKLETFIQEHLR
In words: cross-blocking ELISA on recombinant EC2; competitor murine 214B2. As to the method:
FIG. 18 illustrates the Cross blocking of the murine antibody […] by the chimeric […] and different variants of the humanized 214B2. The activity of the humanized variants of 214B2 (hz214B2) to cross block the parental antibody m214B2 was evaluated by ELISA using the recombinant extracellular loop 2 (EC2) of human antigen CD151. The activity of the humanized variants was compared to the chimeric 214B2.
The affinity of the humanized variants to the epitope of the parental antibody was evaluated by cross blocking the parental antibody with the humanized antibody. The parental antibody concentration was kept constant and the humanized antibody serial diluted. The chimeric antibody served as a positive control and as a reference in these experiments. The humanized antibodies were evaluated by there affinity in ELISA and flow cytometry assays. In the ELISA based assay the second extracellular domain (EC2) of the human CD151 was expressed recombinantly and purified by the six histidine tag. Purified EC2 protein was used to coated ELISA plates and binding of humanized anti-CD151 antibodies was measured indirectly by detecting the murine parental antibody with HRP conjugated anti-mouse IgG antibodies. Binding to CD151 of humanized anti-CD151 antibodies was evaluated by flow cytometry using the human prostate cancer cell line PC3. The affinity was determined by cross blocking the biotinylated parental murine anti-CD151 antibody. The biotinylated antibody was detected using fluorescein conjugated streptavidin. Affinity constant (Kd) was measured by BIACore analysis.
(ELISA stands for enzyme-linked immunosorbent assay.)

Assay [2] addresses human CD151 protein (human) (UniProt P48509). In words: flow cytometry on DU145 cells, antibody at 10 ug/ml.
The target is the same in assay [3]. In words: flow cytometry on A549 cells, antibody at 10 ug/ml. In general terms: Flow cytometry measures light scatter and fluorescence of single cells or particles in a stream.
For assay [4] the target is unchanged. The assay can be described thus: flow cytometry on BxPC3 cells, antibody at 10 ug/ml.
For assay [5] the target is unchanged. In words: flow cytometry on NIH3T3-CD151 cells, antibody at 10 ug/ml.
Assay [6] shares this target. In words: flow cytometry on PC3 cells, undiluted hybridoma supernatant.
Assay [7] has the same target. The assay can be described thus: flow cytometry on PC3 cells.
For assay [8], the target named is T1, recombinant large extracellular loop …. The assay can be described thus: competition ELISA on recombinant EC2; competitor murine 203B6 at 80 ng/ml, detected with anti-mouse IgG. On the procedure: (§1) Cross-competition experiments were further performed by ELISA to evaluate the ability of the chimeric antibodies c214B2[IgG1] and c203B6[IgG1] to inhibit the binding of their corresponding murine forms to the recombinant EC2 loop. Briefly, 96-well ELISA plates were coated with recombinant EC2 at 5 μg/ml in PBS overnight at 4° C. Murine Mabs 203B6 and 214B2 at 80 ng/ml were further incubated in the absence or in the presence of increasing concentrations of their corresponding chimeric antibody forms, ranging from 0.01 to 20 μg/ml, for 1 h at 37° C. For control experiments, no murine antibody was added. Horseradish peroxidase-conjugated polyclonal goat anti-mouse IgG was added at a 1/5000 dilution in PBS and incubated for 1 h at 37° C. After incubation with the peroxidase substrate TMB for 10 min at room temperature, the reaction was stopped with 1 M sulfuric acid and the optical density at 450 nm was measured. […] IC₅₀ values, calculated by using the GraphPad Prism software, were 0.69 μg/ml and 0.71 μg/ml for c214B2[IgG1] and c203B6[IgG1], respectively.

For assay [9] the target is unchanged. In words: competition ELISA on recombinant EC2; competitor murine 214B2 at 80 ng/ml, detected with anti-mouse IgG. On the procedure:
as §1

Sequence of human CD151 protein (human) (P48509 whole entry): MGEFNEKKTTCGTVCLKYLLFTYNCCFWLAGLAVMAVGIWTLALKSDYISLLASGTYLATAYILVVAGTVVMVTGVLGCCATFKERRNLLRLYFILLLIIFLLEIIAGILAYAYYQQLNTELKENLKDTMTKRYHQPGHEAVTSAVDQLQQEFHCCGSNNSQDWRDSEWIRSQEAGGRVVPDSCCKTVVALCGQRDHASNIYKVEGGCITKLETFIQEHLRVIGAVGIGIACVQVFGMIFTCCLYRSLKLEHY

B1: humanized antibody Hz214B2VLVar2VHVar3 (G1) (antibody, human IgG1, kappa, V domains shown)
VH: QVQLVQSGAEVKKPGASVKLSCKASGYTFTSSSMHWVRQAPGQGLEWMGEIHPNSGNTNNAQKFQGRATLTVDTSISTAYVELSRLRSDDTAVYYCARARSFYYAMDCWGQGTSVTVSS
VL: NIQMTQSPSSLSASVGDRVTITCRASENVGTYVNWYQQKPGKAPKLLIYGASNLQSGVPSRFSGSGSATDFTLTISSLQPEDFATYYCGQTYSFPYTFGQGTKLEIKR
notes: also called VH Var3 with VL Var2
For B1, in assay [1], the binding result is reported as “binds”.

B2: humanized 214B2, VL Var1 with VH Var3 (IgG1) (antibody, V domains shown)
VH: B1 VH
VL: B1 VL with N1D, V33L, N53S, A68G
notes: also called Hz214B2VLVar1 with Hz214B2VHVar3 (G1)
On to B2, for which the binding result in assay [1] is listed as “binds”.

B3: humanized antibody Hz214B2VLVar2VHVar2 (G1) (antibody, human IgG1, kappa, V domains shown)
VH: B1 VH with L20V, A68V, V81M
VL: B1 VL
notes: also called VH Var2 with VL Var2
B3: the binding result in assay [1] is given as “binds”.

B4: humanized antibody Hz214B2VLVar3VHVar2 (G1) (antibody, human IgG1, kappa, V domains shown)
VH: B1 VH with L20V, A68V, V81M
VL: B1 VL with Q3V, R24K, N34S, Q55Y, Y87H
notes: also called VH Var2 with VL Var3
In the case of B4, the binding result in [1] is on record as “binds”.

B5: humanized antibody Hz214B2VLVar3VHVar3 (G1) (antibody, human IgG1, kappa, V domains shown)
VH: B1 VH
VL: B1 VL with Q3V, R24K, N34S, Q55Y, Y87H
notes: also called Hz214B2VHVar3VLVar3; Hz214B2VHVar3VLVar3 (G1)
Regarding B5, the binding result in assay [1] is “binds”.

B6: humanized 214B2, VL Var1 with VH Var2 (IgG1) (antibody, V domains shown)
VH: B1 VH with L20V, A68V, V81M
VL: B1 VL with N1D, V33L, N53S, A68G
notes: also called Hz214B2VLVar1 with Hz214B2VHVar2 (G1)
Take B6: the binding result in assay [1] was “binds”.

B7: humanized antibody Hz214B2VLVar4VHVar4 (G1) (antibody, human IgG1, kappa, V domains shown)
VH: B1 VH with A61N, Q62E, Q65K
VL: B1 VL with Q3V, R24K, N34S, L54R, Q55Y, S56T, Y87H
notes: also called Hz214B2VHVar4VLVar4; Hz214B2VHVar4VLVar4 (G1)
Consider B7, for which the binding result in assay [1] is reported as “binds”.

B8: murine antibody 203B6 (antibody, mouse IgG1, V domains shown)
VH: EVKLVESGGGLVQPGGSLKLSCAASGFTFSTYTMSWVRQTPEKRLEWVAYISSGGGTTYYPDTVKGRFTISRDNARNTLYLQMNSLKSEDTAMYYCATPRIGTGFAYWGQGTLVTVSA
VL: DIVLSQSPASLALSLGQRATISCRASASVEYYGTSLMHWYQQKPGQPPKLLIYEASNVESGVPARFSGSGSGTDFSLNIHPVEEDDLAIYFCQQSRKAPYTFGGGTKLEIK
In the case of B8, the MFI turned out to be 860 in [2]; 675 in assay [3]; 768 in [4]; 540 in assay [5]; 975 in [6].

B9: chimeric antibody c203B6[IgG1] (antibody, V domains shown)
VH: B8 VH
VL: DIVLSQSPASLALSLGQRATISCRASASVEYYGTSLMHWYQQKPGQPPKLLIYEASNVESGVPARFSGSGSGTDFSLNIHPVEEDDLAIYFCQQSRKAPYTFGGGTKLEIKR
notes: Mouse variable domains fused to human IgG1 / Ckappa constant domains
As to B9, the antibody concentration at which the binding plateau was reached in [7] was 5 µg/mL. Further, the half-maximal inhibitory concentration (IC50) (in general, the concentration needed to halve the response being measured) in [8] is 0.71 µg/mL.

B10: murine antibody 214B2 (antibody, mouse IgG1, V domains shown)
VH: QVQLQQPGSVLVRPGASVKLSCKASGYTFTSSSMHWAKQRPGQGLEWIGEIHPNSGNTNNNEKFKGKATLTVDTSSSTAYVDLSSLSSEDSAVYYCARARSFYYAMDCWGQGTSVTVSS
VL: NIVMTQSPKSMSMSVGERVTLSCKASENVGTYVSWYQQKPEQSPKLLIYGASNRYTGVPDRFTGSGSATDFTLTISSVQAEDLADYHCGQTYSFPYTFGGGTKLEIK
B10: the MFI amounted to 1330 in [2]; 820 in assay [3]; 849 in [4]; 748 in assay [5]; 1000 in [6].

B11: chimeric antibody c214B2[IgG1] (antibody, V domains shown)
VH: B10 VH
VL: NIVMTQSPKSMSMSVGERVTLSCKASENVGTYVSWYQQKPEQSPKLLIYGASNRYTGVPDRFTGSGSATDFTLTISSVQAEDLADYHCGQTYSFPYTFGGGTKLEIKR
notes: Mouse variable domains fused to human IgG1 / Ckappa constant domains; also called chimeric 214B2; chimeric 241B2
B11 showed an antibody concentration at which the binding plateau was reached in assay [7] of 2.5 µg/mL. The IC50 in assay [9] worked out at 0.69 µg/mL.
